Series [1] addresses Crenotalea thermophila SPARTA complex (heterodimer of TIR-APAZ and short pAgo) (Crenotalea thermophila). Put plainly: cryo-EM structure.
Series [2] concerns the target T1, short pAgo (SPARTA);TIR-APAZ (SPARTA) (Crenotalea thermophila;Crenotalea …, UniProt A0A1I7NFD7;A0A1I7NFG5 1-507;1-450, |).
T1 sequence 1: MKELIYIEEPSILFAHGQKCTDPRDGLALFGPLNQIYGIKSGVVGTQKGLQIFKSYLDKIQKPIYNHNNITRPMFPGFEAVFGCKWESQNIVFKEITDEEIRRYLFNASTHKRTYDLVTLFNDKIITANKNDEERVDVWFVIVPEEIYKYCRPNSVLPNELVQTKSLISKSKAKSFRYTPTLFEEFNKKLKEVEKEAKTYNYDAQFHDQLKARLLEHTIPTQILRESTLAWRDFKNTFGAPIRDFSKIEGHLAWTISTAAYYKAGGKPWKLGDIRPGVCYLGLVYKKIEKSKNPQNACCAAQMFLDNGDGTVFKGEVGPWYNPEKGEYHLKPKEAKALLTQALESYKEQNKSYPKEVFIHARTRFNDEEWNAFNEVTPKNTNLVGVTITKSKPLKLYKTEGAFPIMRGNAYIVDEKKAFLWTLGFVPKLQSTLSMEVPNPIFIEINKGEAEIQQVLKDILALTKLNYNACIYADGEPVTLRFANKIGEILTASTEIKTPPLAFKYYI
T1 sequence 2: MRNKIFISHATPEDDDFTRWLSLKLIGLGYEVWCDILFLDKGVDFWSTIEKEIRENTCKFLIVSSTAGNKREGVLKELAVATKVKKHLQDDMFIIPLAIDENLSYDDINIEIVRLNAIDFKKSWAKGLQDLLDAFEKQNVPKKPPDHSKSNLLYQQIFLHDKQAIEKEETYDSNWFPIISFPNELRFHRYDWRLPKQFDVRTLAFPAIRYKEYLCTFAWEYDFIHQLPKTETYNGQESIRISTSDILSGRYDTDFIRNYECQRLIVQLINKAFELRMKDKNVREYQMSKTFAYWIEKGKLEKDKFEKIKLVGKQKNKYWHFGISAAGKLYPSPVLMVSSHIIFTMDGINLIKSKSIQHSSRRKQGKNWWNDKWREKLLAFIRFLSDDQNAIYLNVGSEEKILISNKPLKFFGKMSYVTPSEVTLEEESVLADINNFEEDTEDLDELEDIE
Description: cryoEM structure.

Turning to “Crenotalea thermophila SPARTA complex (heterodimer of TIR-APAZ and short pAgo)”, the stoichiometry N in series [1] was determined as 4.

B1: gRNA-target ssDNA (25 nt target) (DNA:RNA)
RNA: AAACGGCUCUAAUCUAUUAGU
DNA: CAACTAATAGATTAGAGCCGTTTAT
modifications: 5'-phosphate on gRNA
Take B1: the binding result in series [2] is “binds”.
